According to patent JP2005168497A (dated 2005):
Changes are numbered by the printed parent chain.

Assays:
[1] = target: T1, TRAIL-R1-hFc (ヒトTRAIL-R1の細胞外領域とヒトIgG1のFc領域とが融合したタンパク質, ALEXIS社製) (human, UniProt O00220 24-239); assay: ELISA, purified antibody on plate-coated TRAIL-R1-hFc (Example 4)
T1 construct: extracellular domain; Bought (ALEXIS); not shown: human IgG1 Fc region
T1 sequence (looked up): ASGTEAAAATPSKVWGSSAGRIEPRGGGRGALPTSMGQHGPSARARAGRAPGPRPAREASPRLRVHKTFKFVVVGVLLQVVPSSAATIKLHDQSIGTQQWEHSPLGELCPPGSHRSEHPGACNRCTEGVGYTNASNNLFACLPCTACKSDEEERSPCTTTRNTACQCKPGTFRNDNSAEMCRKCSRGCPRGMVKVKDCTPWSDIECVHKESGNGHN

[2] = target: ヒトTRAIL-R2 (細胞表面の受容体; Colo205, U251, Jurkat, 正常ヒト肝実質細胞) (human, UniProt O14763 56-440); assay: cell-based or functional assay

B1: KMTR1抗体 (ハイブリドーマKMTR1, FERM BP-8038 の産生するヒトモノクローナル抗体) (antibody, V domains shown)
VH: EVQLLESGGGLVQPGRSLRLSCAASGFTFSSYAMSWVRQAPGKGLEWVSAISGSGGSRYYADSVKGRFTISRDNSKNTLYLQMNSLRAEDTAVYYCAKESSGWFGAFDYWGQGTLVTVSS
VL: EIVLTQSPDFQSVTPKEKVTITCRASQSIGSSLHWYQQKPDQSPKLLIKYASQSFSGVPSRFSGSGSGTDFTLTINSLEAEDAAAYYCHQSSSLPITFGQGTRLEIK
notes: Human IgG, kappa light chain; Signal peptide limits are predictions, not N-terminal analysis
[1]
  binding result: binds

B2: L-30-10抗体 (ハイブリドーマL-30-10, FERM BP-7700 / FERM BP-7769 の産生するヒト抗TRAIL-R2モノクローナル抗体) (antibody, V domains shown)
VH: QLQLQESGPGLVKPSETLSLTCTVSGGSISSRSNYWGWIRQPPGKGLEWIGNVYYRGSTYYNSSLKSRVTISVDTSKNQFSLKLSSVTVADTAVYYCARLSVAEFDYWGQGILVTVSS
VL: EIVLTQSPATLSLSPGERATLSCRASQSVSSFLAWYQQKPGQAPRLLIYDASNRATGSPARFSGSGSGTDFTLTISSLEPEDFAVYYCQQRSDWPLTFGPGTKVDIK
[2]
  Jurkat細胞に対するLD50 (48時間): 0.13 µg/mL
  U251細胞に対するLD50 (シスプラチン4μg/ml同時添加, 48時間): 0.17 µg/mL

B3: E-11-13抗体 (ハイブリドーマE-11-13, FERM BP-7698 / FERM BP-7770 の産生するヒト抗TRAIL-R2モノクローナル抗体) (antibody, V domains shown)
VH: QLQLQESGPGLVKPSETLSLTCTVSGGSIISKSSYWGWIRQPPGKGLEWIGSIYYSGSTFYNPSLKSRVTISVDTSKNQFSLKLSSVTAADTAVYYCARLTVAEFDYWGQGTLVTVSS
VL: B2 VL with S58I, D93N
[2]
  Jurkat細胞に対するLD50 (48時間): 0.1 µg/mL
  U251細胞に対するLD50 (シスプラチン4μg/ml同時添加, 48時間): 0.3 µg/mL
